Laboratory results taken from the supplement of paper PMC10201428.
± gives the standard deviation of the averaged measurements.

Legend:
[1] = test system: VchCAST RNA-guided transposition machinery (E. coli BL21(DE3) host, lacZ target); test: relative integration efficiency (T-RL orientation) vs wild-type transposon end (log2 (normalized fold change)); transposon end mutated: right end (5 bp flank + 75 bp right end); higher = more efficient transposition
Procedure, shortened: (§1)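 Relative integration efficiency is a fold change of output over input barcode abundance, normalised to reference barcodes and log-transformed. Input plasmids and genomic integration junctions were PCR-amplified and Illumina-sequenced from E. coli BL21(DE3) co-transformed with a T7-driven effector plasmid and pUC57 donor pools of 1549 left-end or 1849 right-end transposon variants. Plating was done with 0.1 mM IPTG at 37°C for 18 h, with two biological output replicates and four reference barcodes.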

[2] = test system: VchCAST RNA-guided transposition machinery (E. coli BL21(DE3) host, lacZ target); test: relative integration efficiency (T-LR orientation) vs wild-type transposon end (log2 (normalized fold change)); transposon end mutated: right end (5 bp flank + 75 bp right end); higher = more efficient transposition
Procedure, shortened: as §1

Row | Sequence | relative integration efficiency (log2) [1] | relative integration efficiency (log2) [2]
1 | ACATTTGTTGATACAACCATAAAATGATAATTACACCCATAAATTGATAATTATCACACCCATAAATTGATATTGCTTATGATCATAGTCAGACCAACATTGCTACGACCCGTATTCGCACCGACAC | 0.0482 ± 0.094 | -0.462 ± 0.31
2 | ACATTTGTTGATACAACCATAAAATGATAATTACAACCATAAAATGATAATTATCATAATTATCATTTTATGGTTGCTCTGATCATAGTCAGACCAACATTGCTACGACCCGTATTCGCACCGACAC | 0.241 ± 0.067 | 1.96 ± 0.16
3 | ACATTTGTTGATACAACCATAAAATGATAATTACTCTGCACCCATAAATTGATAATTATCACACCCATAAATTGATATTGCATCATAGTCAGACCAACATTGCTACGACCCGTATTCGCACCGACAC | -3.62 ± 0.15 | 0.55 ± 0.061
4 | ACATTTGTTGATACAACCATAAAATGATAATTACACCCATAAATTGATAATTATCACACCCATAAATTGATATTGCGAGAGATCATAGTCAGACCAACATTGCTACGACCCGTATTCGCACCGACAC | -0.286 ± 0.11 | -0.165 ± 0.12
5 | ACATTTGTTGATACAACCATAAGTTGATATTTTCAACCATAAAATGATAATTATCACAACCATATATTGATATCTCCTCTGATCATAGTCAGACCAACATTGCTACGACCCGTATTCGCACCGACAC | -0.078 ± 0.041 | 0.0384 ± 0.016
6 | ACATTTGTTGATACAACCATAAAATGATAATTACACCCATAAATTGATAATTATCACACCCATAAATTGATATTTAAGAGGATCATAGTCAGACCAACATTGCTACGACCCGTATTCGCACCGACAC | 0.179 ± 0.034 | 0.08 ± 0.011
7 | ACATTTGTTGATACAACCATAAAATGATAATTACCACCATAAATTGATAATTATCACACCCATAAATTGATATTGCCTCTGATCATAGTCAGACCAACATTGCTACGACCCGTATTCGCACCGACAC | 0.0622 ± 0.17 | -0.372 ± 0.27
8 | ACATTTGTTGATACAACCATAAAATGATAATTACTCTGATCATAGTCAGACCAACATTGCTACGACCCGTATTCGCACCGACACAACGACTATATTTATGGGTCACCCATAAATTGATAATTATCAG | -1.52 ± 0.14 | 1.36 ± 0.37
9 | ACATTTGTTGATACAACCATAAAAGGATAATTACCCCCATAAATTGATAATTATCCCACCCAATTTAACTATAACGCTCTGATCATAGTCAGACCAACATTGCTACGACCCGTATTCGCACCGACAC | -0.765 ± 0.32 | 2.19 ± 0.4
10 | ACATTTGTTGATAGTTGGTATTTTACTATTAATGTGGGTATTTAACTATTAATTCAGTGGGTATTTAACTATAACGCTCTGATCATAGTCAGACCAACATTGCTACGACCCGTATTCGCACCGACAC | -6.63 ± 0.31 | < -10
11 | ACATTTGTTGATACAACCATAAAATGATAATTACACCCATAAATTGATAAAAATCACACCCATAAATTGATATTGCCTCTGATCATAGTCAGACCAACATTGCTACGACCCGTATTCGCACCGACAC | -0.355 ± 0.081 | 0.324 ± 0.4
12 | ACATTTGTTGATACAACCATAAAATGATAATTACACCCATAAATTGCGAATTATCACACCCATAAATTGATATTGCCTCTGATCATAGTCAGACCAACATTGCTACGACCCGTATTCGCACCGACAC | -0.3539 ± 0.00067 | -0.682 ± 0.11
13 | ACATTTGTTGATACAACCATAAAATGATCCGGCACAAACGCCCGGTCGCCGGCGACACAAACGCCCGGTCGCGGTAAGAGGATCATAGTCAGACCAACATTGCTACGACCCGTATTCGCACCGACAC | -2.68 ± 0.12 | 0.37 ± 0.064
14 | ACATTTGTTGATACAACCATAAGTTGATATTTTCAACCATAAGTTGATATTTTTCACAACCATAAAATGATAATTACTCTGATCATAGTCAGACCAACATTGCTACGACCCGTATTCGCACCGACAC | 0.228 ± 0.008 | -0.0651 ± 0.34
15 | ACATTTGTTGATACAACCATAAAATGATAATTACTCTGATCATAGTCAGACCAACATTGCTACCACCCATAAATTGATAATTATCACACCCATAAATTGATATTGCGACCCGTATTCGCACCGACAC | -3.63 ± 0.078 | -0.553 ± 0.016
16 | ACATTTGTTGATACAACCATCAAATGATAATTCCACCCATAAATTGATAATTATCACACCCAATTTAACTATAACGCTCTGATCATAGTCAGACCAACATTGCTACGACCCGTATTCGCACCGACAC | -1.53 ± 0.19 | 1.44 ± 0.11
17 | ACATTTGTTGATACAACCATAAAATCATAATTACCCCCATAAATTGATAATTATCCCACCCAATTTAACTATAACGCTCTGATCATAGTCAGACCAACATTGCTACGACCCGTATTCGCACCGACAC | -0.611 ± 0.71 | 3.39 ± 0.37
18 | ACATTTGTTGATACAACCATAAAATGATAATTACACCCATAAATTGATAATTATCACACCCATAAATTGATATTGCCTCTGATAACTTCGTATAGGATACTTTATACGAAGTTATTCGCACCGACAC | -0.663 ± 0.27 | 1.19 ± 0.28
19 | ACATTTGTTGATACAACCATAAAATGATACTTACACCCATAAATTGATACTTATCACACCCATAAATTGATAGTGCCTCTGATCATAGTCAGACCAACATTGCTACGACCCGTATTCGCACCGACAC | -0.987 ± 0.027 | -0.0216 ± 0.18
20 | ACATTTGTTGATACAACCATAAAATGATAATTACACCCATAAATTGATAATTATCACACCCATAAATTGATATTGCCTCTGGCTAGCATTATACCTAGGACTGAGCTAGCTGTCAACGCACCGACAC | -2.99 ± 0.27 | 1.91 ± 0.064
21 | ACATTTGTGGATACAACCCTAAAATGATAATTACACCCATAAATTCATAATTATCACCCCCAATTTAACTATAACGCTCTGATCATAGTCAGACCAACATTGCTACGACCCGTATTCGCACCGACAC | -4.88 ± 0.16 | -2.64 ± 0.13
22 | ACATTTGTTGATACAACCATAAAATGTATTTTACACCCATAAATTGATAATTATCACACCCATAAATTGATATTGCCTCTGATCATAGTCAGACCAACATTGCTACGACCCGTATTCGCACCGACAC | -0.938 ± 0.035 | -0.626 ± 0.31
23 | ACATTTGTTCATACAACCCTAAAATGATAATTACACCCATAAATGGATCATTATCACACCCAATTTAACTATAACGCTCTGATCATAGTCAGACCAACATTGCTACGACCCGTATTCGCACCGACAC | -5 ± 0.2 | -3.19 ± 0.38
24 | ACATTTGTTGATACAACCATAAAATGATAATTACACCCATACCGGTCGCCGGCGACACAAACGCCCGGTCGCGGTAAGAGGATCATAGTCAGACCAACATTGCTACGACCCGTATTCGCACCGACAC | -2.6 ± 0.11 | 0.296 ± 0.13
25 | ACATTTGTTGATACAACCATAAAATGATAATTAGTCCCATAAATTGATAATTATCACACCCATAAATTGATATTGCCTCTGATCATAGTCAGACCAACATTGCTACGACCCGTATTCGCACCGACAC | -0.921 ± 0.049 | -0.924 ± 0.37
26 | ACATTTGTTGATACAACGTTAAAATGATAATTACACCCATAAATTGATAATTATCACACCCATAAATTGATATTGCCTCTGATCATAGTCAGACCAACATTGCTACGACCCGTATTCGCACCGACAC | -0.928 ± 0.01 | -1.02 ± 0.3
27 | ACATTTGTTGATACAACCATAAAATGATAATTACACCCATAAATTGATAATTATACACAAACGCCCGGTCGCGGTAAGAGGATCATAGTCAGACCAACATTGCTACGACCCGTATTCGCACCGACAC | -1.49 ± 0.49 | 2.63 ± 0.19
